Measurements taken from patent publication US10898561B2, “Peptides and combination of peptides for use in immunotherapy against pancreatic cancer and other cancers” (IMMATICS BIOTECHNOLOGIES GMBH, priority 2015, dated 2021).

Molecular target: HLA-A*02:01 (Homo sapiens, UniProt P04439, D140Y/D185E/D98H/E176V/E277Q/G131W/G231S/I119V/I121R/I166T/I218V/L300P/L318F/N151K/N90K/P208A/P217A/Q86G/Q94H/R138H/R169H/T345S)
Assay: MHC binding assay: UV-ligand exchange with beta2m ELISA
Details: MHC class I binding score, yield of UV-ligand exchange
Excerpt: Candidate peptides for T cell based therapies according to the present invention were further tested for their MHC binding capacity (affinity). The individual peptide-MHC complexes were produced by UV-ligand exchange, where a UV-sensitive peptide is cleaved upon UV-irradiation, and exchanged with the peptide of interest as analyzed. Only peptide candidates that can effectively bind and stabilize the peptide-receptive MHC molecules prevent dissociation of the MHC complexes. To determine the yield of the exchange reaction, an ELISA was performed based on the detection of the light chain (β2m) of stabilized MHC complexes. The assay was performed as generally described in Rodenko et al. (Rodenko et al., 2006).
96 well MAXISorp plates (NUNC) were coated over night with 2 ug/ml streptavidin in PBS at room temperature, washed 4× and blocked for 1 h at 37° C. in 2% BSA containing blocking buffer. Refolded HLA-A*02:01/MLA-001 monomers served as standards, covering the range of 15-500 ng/ml. Peptide-MHC monomers of the UV-exchange reaction were diluted 100 fold in blocking buffer. Samples were incubated for 1 h at 37° C., washed four times, incubated with 2 ug/ml HRP conjugated anti-β2m for 1 h at 37° C., washed again and detected with TMB solution that is stopped with […]. Absorption was measured at 450 nm. Candidate peptides that show a high exchange yield (preferably higher than 50%, most preferred higher than 75%) are generally preferred for a generation and production of antibodies or fragments thereof, and/or T cell receptors or fragments thereof, as they show sufficient avidity to the MHC molecules and prevent dissociation of the MHC complexes.

| Substance | Peptide exchange |
| --- | --- |
| 2 (SLQEEHVAVA; listed as Homo sapiens) [compound 2] | ++ (20%-49% = ++) |
| 6 (VLISLKQAPLV; listed as Homo sapiens) [compound 6] | ++ (20%-49% = ++) |
| 7 (AQQESEIAGI; listed as Homo sapiens) [compound 7] | ++ (20%-49% = ++) |
| 11 (FLYKIIDEL; listed as Homo sapiens) [compound 11] | +++ (50%-75% = +++) |
| 12 (FVSEIVDTV; listed as Homo sapiens) [compound 12] | +++ (50%-75% = +++) |
| 13 (LLAGQTYHV; listed as Homo sapiens) [compound 13] | ++ (20%-49% = ++) |
| 14 (VLAKPGVISV; listed as Homo sapiens) [compound 14] | ++ (20%-49% = ++) |
| 16 (APVNVTTEVKSV; listed as Homo sapiens) [compound 16] | ++ (20%-49% = ++) |
| 17 (FLKSGDAAIV; listed as Homo sapiens) [compound 17] | ++ (20%-49% = ++) |
| 18 (SLLDDELMSL; listed as Homo sapiens) [compound 18] | ++ (20%-49% = ++) |
| 25 (SLKEEVGEEAI; listed as Homo sapiens) [compound 25] | ++ (20%-49% = ++) |
| 26 (SLKEEVGEEAIV; listed as Homo sapiens) [compound 26] | ++ (20%-49% = ++) |
| 27 (YLQGQRLDNV; listed as Homo sapiens) [compound 27] | ++ (20%-49% = ++) |
| 28 (YLQGQRLDNVV; listed as Homo sapiens) [compound 28] | ++ (20%-49% = ++) |
| 29 (FLQEYLDAI; listed as Homo sapiens) [compound 29] | +++ (50%-75% = +++) |
| 30 (VVDEGPTGV; listed as Homo sapiens) [compound 30] | ++ (20%-49% = ++) |
| 31 (SLAAAAGKQEL; listed as Homo sapiens) [compound 31] | ++ (20%-49% = ++) |

| Substance | Peptide exchange |
| --- | --- |
| 33 (SLDSRLELA; listed as Homo sapiens) [compound 33] | ++ (20%-49% = ++) |
| 35 (VMDSGDGVTHTV; listed as Homo sapiens) [compound 35] | ++ (20%-49% = ++) |
| 38 (NLVEKTPALV; listed as Homo sapiens) [compound 38] | +++ (50%-75% = +++) |
| 40 (FILDSAETTTL; listed as Homo sapiens) [compound 40] | ++ (20%-49% = ++) |
| 42 (KLVDKSTEL; listed as Homo sapiens) [compound 42] | ++ (20%-49% = ++) |
| 43 (RLDQRVPQI; listed as Homo sapiens) [compound 43] | ++ (20%-49% = ++) |
| 44 (VLLDKIKNLQV; listed as Homo sapiens) [compound 44] | ++ (20%-49% = ++) |
| 48 (ALTQTGGPHV; listed as Homo sapiens) [compound 48] | ++ (20%-49% = ++) |
| 49 (NLKGTFATL; listed as Homo sapiens) [compound 49] | + (<20% = +) |
| 51 (ALMLQGVDL; listed as Homo sapiens) [compound 51] | ++ (20%-49% = ++) |
| 56 (GLLDYATGAIGSV; listed as Homo sapiens) [compound 56] | +++ (50%-75% = +++) |
| 58 (GLAAFKAFL; listed as Homo sapiens) [compound 58] | +++ (50%-75% = +++) |
| 59 (KLFNLSKEDDV; listed as Homo sapiens) [compound 59] | ++ (20%-49% = ++) |
| 64 (FLVSNMLLAEA; listed as Homo sapiens) [compound 64] | +++ (50%-75% = +++) |
| 65 (YLYDSETKNA; listed as Homo sapiens) [compound 65] | ++ (20%-49% = ++) |
| 66 (ALLSGLREA; listed as Homo sapiens) [compound 66] | +++ (50%-75% = +++) |
| 67 (KMFFLIDKV; listed as Homo sapiens) [compound 67] | +++ (50%-75% = +++) |

The remaining lines, values ahead:

| Peptide exchange | Substance |
| --- | --- |
| ++ (20%-49% = ++) | 1 (FLAQQESEI; listed as Homo sapiens) [compound 1] |
| ++ (20%-49% = ++) | 4 (SVDVSPPKV; listed as Homo sapiens) [compound 4] |
| +++ (50%-75% = +++) | 5 (LLVDDSFLHTV; listed as Homo sapiens) [compound 5] |
| ++ (20%-49% = ++) | 8 (IVDDLTINL; listed as Homo sapiens) [compound 8] |
| ++ (20%-49% = ++) | 9 (FLFDGSANLV; listed as Homo sapiens) [compound 9] |
| ++ (20%-49% = ++) | 10 (FLVDGSSAL; listed as Homo sapiens) [compound 10] |
| ++ (20%-49% = ++) | 15 (SLANNVTSV; listed as Homo sapiens) [compound 15] |
| ++ (20%-49% = ++) | 22 (TLDGAAVNQV; listed as Homo sapiens) [compound 22] |
| ++ (20%-49% = ++) | 24 (GLLEELVTV; listed as Homo sapiens) [compound 24] |
| + (<20% = +) | 32 (SLAAAAGKQELA; listed as Homo sapiens) [compound 32] |
| ++ (20%-49% = ++) | 39 (TLLSNLEEA; listed as Homo sapiens) [compound 39] |
| +++ (50%-75% = +++) | 41 (FLLDGSEGV; listed as Homo sapiens) [compound 41] |
| ++ (20%-49% = ++) | 46 (TFAPVNVTTEVKSV; listed as Homo sapiens) [compound 46] |
| ++++ (>=75% = ++++) | 47 (KMDASLGNLFA; listed as Homo sapiens) [compound 47] |
| ++ (20%-49% = ++) | 52 (RMVEEIGVEL; listed as Homo sapiens) [compound 52] |
| + (<20% = +) | 53 (SSFGGLGGGSV; listed as Homo sapiens) [compound 53] |
| ++ (20%-49% = ++) | 54 (VLLSEIEVA; listed as Homo sapiens) [compound 54] |
| ++ (20%-49% = ++) | 55 (YLDAMMNEA; listed as Homo sapiens) [compound 55] |
| ++++ (>=75% = ++++) | 57 (FLGKVVIDV; listed as Homo sapiens) [compound 57] |
| ++ (20%-49% = ++) | 60 (YLEEDVYQL; listed as Homo sapiens) [compound 60] |
